B1: Amyloid beta precursor protein binding family B member 1 (Homo sapiens), O00213 (parent)
chain: MSVPSSLSQSAINANSHGGPALSLPLPLHAAHNQLLNAKLQATAVGPKDLRSAMGEGGGPEPGPANAKWLKEGQNQLRRAATAHRDQNRNVTLTLAEEASQEPEMAPLGPKGLIHLYSELELSAHNAANRGLRGPGLIISTQEQGPDEGEEKAAGEAEEEEEDDDDEEEEEDLSSPPGLPEPLESVEAPPRPQALTDGPREHSKSASLLFGMRNSAASDEDSSWATLSQGSPSYGSPEDTDSFWNPNAFETDSDLPAGWMRVQDTSGTYYWHIPTGTTQWEPPGRASPSQGSSPQEESQLTWTGFAHGEGFEDGEFWKDEPSDEAPMELGLKEPEEGTLTFPAQSLSPEPLPQEEEKLPPRNTNPGIKCFAVRSLGWVEMTEEELAPGRSSVAVNNCIRQLSYHKNNLHDPMSGGWGEGKDLLLQLEDETLKLVEPQSQALLHAQPIISIRVWGVGRDSGRERDFAYVARDKLTQMLKCHVFRCEAPAKNIATSLHEICSKIMAERRNARCLVNGLSLDHSKLVDVPFQVEFPAPKNELVQKFQVYYLGNVPVAKPVGVDVINGALESVLSSSSREQWTPSHVSVAPATLTILHQQTEAVLGECRVRFLSFLAVGRDVHTFAFIMAAGPASFCCHMFWCEPNAASLSEAVQAACMLRYQKCLDARSQASTSCLPAPPAESVARRVGWTVRRGVQSLWGSLKPKRLGAHTP

Variants of: B1
Conditions: with lrp1_human LRP1, Q07954
lrp1_human LRP1, Q07954, sequence (Q07954 whole entry): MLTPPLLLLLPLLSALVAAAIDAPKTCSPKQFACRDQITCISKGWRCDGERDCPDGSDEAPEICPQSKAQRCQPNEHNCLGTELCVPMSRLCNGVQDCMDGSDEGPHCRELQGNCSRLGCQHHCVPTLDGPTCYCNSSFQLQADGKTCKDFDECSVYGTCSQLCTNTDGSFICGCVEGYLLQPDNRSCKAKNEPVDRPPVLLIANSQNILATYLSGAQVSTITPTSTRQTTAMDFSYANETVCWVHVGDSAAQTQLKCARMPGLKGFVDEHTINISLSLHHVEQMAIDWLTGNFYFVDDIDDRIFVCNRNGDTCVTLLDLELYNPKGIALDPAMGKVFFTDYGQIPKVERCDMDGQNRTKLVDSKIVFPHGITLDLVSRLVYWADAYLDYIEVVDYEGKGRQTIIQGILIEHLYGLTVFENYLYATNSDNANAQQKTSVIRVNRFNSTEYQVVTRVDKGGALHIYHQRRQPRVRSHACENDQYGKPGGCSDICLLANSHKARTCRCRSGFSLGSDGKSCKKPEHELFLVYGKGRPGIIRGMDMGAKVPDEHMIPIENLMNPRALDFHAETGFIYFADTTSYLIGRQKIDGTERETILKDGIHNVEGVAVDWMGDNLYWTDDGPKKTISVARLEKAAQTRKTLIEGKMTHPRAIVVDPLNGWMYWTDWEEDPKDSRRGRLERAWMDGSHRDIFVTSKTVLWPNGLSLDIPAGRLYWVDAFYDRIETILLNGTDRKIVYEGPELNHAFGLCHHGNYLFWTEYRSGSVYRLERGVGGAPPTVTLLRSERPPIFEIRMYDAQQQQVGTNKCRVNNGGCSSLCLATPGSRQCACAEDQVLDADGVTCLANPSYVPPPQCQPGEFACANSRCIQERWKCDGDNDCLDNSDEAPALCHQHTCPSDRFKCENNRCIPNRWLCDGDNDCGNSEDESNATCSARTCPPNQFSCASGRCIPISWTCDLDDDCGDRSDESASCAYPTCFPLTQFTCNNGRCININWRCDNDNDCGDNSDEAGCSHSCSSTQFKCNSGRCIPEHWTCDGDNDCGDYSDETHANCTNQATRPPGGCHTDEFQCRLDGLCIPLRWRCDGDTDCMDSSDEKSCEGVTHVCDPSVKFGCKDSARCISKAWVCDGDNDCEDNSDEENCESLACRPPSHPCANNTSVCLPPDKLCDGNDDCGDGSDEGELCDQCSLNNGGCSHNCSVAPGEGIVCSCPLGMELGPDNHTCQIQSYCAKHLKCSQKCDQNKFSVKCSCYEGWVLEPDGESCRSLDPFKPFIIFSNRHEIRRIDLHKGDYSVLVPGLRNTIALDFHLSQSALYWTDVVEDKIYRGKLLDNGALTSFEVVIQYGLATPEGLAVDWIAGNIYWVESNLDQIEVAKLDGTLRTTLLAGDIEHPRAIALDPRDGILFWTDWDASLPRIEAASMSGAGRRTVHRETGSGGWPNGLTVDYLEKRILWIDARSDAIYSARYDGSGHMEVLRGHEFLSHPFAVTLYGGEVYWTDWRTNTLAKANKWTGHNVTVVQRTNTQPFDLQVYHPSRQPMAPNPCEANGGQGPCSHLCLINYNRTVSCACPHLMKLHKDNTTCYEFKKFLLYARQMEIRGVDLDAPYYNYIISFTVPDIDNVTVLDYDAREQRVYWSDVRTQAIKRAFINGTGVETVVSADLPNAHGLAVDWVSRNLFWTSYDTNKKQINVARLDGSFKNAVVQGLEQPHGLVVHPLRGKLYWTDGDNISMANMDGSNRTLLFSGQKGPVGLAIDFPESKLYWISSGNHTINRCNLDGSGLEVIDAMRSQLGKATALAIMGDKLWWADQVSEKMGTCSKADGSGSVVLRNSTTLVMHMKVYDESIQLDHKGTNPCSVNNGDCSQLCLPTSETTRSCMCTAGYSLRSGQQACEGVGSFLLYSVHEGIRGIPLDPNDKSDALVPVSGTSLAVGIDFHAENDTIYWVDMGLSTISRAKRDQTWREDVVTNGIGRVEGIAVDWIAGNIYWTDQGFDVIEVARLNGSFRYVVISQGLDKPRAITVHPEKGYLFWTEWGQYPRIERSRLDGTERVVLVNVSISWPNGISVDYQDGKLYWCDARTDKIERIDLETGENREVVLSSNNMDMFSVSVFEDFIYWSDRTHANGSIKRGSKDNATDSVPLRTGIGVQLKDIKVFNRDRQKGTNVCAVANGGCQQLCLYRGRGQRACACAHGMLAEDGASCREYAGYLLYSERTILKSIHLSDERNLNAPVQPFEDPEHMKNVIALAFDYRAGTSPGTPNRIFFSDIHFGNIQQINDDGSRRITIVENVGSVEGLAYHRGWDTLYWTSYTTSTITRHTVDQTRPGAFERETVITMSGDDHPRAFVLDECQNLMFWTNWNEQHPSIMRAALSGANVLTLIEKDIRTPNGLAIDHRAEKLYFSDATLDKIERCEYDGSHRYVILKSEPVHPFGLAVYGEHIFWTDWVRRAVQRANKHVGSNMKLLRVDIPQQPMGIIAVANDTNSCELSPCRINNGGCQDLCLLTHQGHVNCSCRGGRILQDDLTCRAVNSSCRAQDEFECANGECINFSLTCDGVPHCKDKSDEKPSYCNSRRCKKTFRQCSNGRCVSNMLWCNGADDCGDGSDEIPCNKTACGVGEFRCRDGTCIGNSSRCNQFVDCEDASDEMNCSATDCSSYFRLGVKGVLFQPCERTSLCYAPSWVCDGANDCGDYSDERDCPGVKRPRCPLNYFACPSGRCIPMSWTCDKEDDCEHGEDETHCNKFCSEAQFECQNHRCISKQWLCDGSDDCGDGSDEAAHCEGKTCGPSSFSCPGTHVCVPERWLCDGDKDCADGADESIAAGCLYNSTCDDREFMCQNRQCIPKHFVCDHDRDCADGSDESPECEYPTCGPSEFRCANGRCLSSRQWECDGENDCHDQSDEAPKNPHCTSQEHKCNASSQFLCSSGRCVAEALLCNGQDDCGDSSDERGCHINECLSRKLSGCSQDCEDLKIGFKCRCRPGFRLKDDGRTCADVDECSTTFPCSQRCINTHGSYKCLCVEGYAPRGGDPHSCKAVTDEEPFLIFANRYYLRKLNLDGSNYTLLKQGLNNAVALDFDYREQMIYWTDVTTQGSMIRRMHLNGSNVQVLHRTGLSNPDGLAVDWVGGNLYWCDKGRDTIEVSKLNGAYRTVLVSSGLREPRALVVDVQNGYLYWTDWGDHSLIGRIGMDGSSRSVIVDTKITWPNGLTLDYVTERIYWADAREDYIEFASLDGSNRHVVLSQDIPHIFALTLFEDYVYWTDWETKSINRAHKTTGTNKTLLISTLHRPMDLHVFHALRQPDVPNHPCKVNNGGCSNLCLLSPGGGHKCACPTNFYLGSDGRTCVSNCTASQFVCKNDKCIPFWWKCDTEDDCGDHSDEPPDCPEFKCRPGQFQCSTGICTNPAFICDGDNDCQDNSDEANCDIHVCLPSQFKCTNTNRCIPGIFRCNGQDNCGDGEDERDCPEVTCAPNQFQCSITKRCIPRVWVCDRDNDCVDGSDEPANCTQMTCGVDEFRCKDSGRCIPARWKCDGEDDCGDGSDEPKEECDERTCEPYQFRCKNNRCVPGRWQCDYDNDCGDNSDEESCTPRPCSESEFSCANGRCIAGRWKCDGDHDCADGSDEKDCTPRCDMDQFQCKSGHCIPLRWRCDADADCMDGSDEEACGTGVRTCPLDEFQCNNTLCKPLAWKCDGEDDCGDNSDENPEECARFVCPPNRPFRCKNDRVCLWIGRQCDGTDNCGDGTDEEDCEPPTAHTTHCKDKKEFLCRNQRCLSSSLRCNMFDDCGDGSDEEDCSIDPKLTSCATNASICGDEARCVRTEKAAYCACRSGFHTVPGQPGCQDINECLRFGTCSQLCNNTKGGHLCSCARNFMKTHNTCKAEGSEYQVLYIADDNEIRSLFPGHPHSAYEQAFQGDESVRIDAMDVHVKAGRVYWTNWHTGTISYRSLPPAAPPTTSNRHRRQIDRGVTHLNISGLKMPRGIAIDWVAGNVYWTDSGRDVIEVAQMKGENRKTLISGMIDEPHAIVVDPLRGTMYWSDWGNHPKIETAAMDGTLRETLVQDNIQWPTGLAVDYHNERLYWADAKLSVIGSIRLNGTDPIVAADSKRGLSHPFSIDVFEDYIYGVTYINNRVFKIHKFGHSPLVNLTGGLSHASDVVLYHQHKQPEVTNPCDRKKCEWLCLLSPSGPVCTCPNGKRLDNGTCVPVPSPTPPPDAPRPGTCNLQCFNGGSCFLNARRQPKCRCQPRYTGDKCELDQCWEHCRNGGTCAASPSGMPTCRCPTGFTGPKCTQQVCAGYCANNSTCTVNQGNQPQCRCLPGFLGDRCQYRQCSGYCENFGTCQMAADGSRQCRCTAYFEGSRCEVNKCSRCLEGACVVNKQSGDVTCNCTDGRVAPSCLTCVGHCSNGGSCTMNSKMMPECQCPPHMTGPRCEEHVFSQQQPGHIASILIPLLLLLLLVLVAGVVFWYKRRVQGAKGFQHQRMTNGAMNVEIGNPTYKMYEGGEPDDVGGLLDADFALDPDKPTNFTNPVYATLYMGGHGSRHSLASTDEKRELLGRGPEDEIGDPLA

Row | Variant | effect of a mutation on the interaction
1 | R451A | disrupting interaction
2 | R470A | disrupting interaction
